Results published in PMC8939769 (2022).

Target: SARS-CoV-2 spike protein receptor binding domain (RBD) (SARS-CoV-2, UniProt P0DTC2 319-541)
Experiment: ELISA

B1: AZD8895 (tixagevimab) (antibody, V domains shown)
VH: QMQLVQSGPEVKKPGTSVKVSCKASGFTFMSSAVQWVRQARGQRLEWIGWIVIGSGNTNYAQKFQERVTITRDMSTSTAYMELSSLRSEDTAVYYCAAPYCSSISCNDGFDIWGQGTMVTVSS
VL: not shown
B1 was tested, and the IC50 was 0.0477 µg/mL.
